Assay results as given in patent publication US20250282887A1 (Amgen, published 2025).

Columns and labels:
human MAGEB5 = molecular target: T1, human MAGEB5 (human, UniProt Q9BZ81 1-275); experiment: IHC, FFPE CHO cells transfected with human MAGEB5
T1 construct: whole, on cells; Transfected into CHO cells with Myc/DDK tags; also called CHO-MAGEB5+ cells
T1 sequence (looked up): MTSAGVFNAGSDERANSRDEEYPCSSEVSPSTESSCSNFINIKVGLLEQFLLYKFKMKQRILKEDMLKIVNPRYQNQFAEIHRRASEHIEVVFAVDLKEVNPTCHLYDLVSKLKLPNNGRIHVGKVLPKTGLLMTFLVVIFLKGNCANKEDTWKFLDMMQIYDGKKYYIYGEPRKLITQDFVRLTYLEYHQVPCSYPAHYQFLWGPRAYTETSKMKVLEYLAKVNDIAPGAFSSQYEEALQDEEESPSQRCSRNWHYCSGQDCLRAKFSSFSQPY
From the text: (§1) Negative control cells included parental Chinese hamster ovary (CHO) cells, CHO cells stably transfected with mCherry Vector Control (minus Myc/DDK tags), CHO cells stably transfected with mCherry-human DCAF4L2 (plus Myc/DDK tags). The cross-reactivity control cells included CHO cells transfected with mCherry Vector Control (plus Myc/DDK tags) with one of the human MAGE-B or MAGE-A family members (MAGEA1, MAGEA2, MAGEA3, MAGEA4, MAGEA5, MAGEA6, MAGEA8, MAGEA9, MAGEA11, MAGEA12, MAGEB1, MAGEB3, MAGEB4, MAGEB5, MAGEB6, MAGEB10, MAGEB16, MAGEB17, MAGEB18). Positive control cell lines included CHO cells transfected with mCherry Vector (plus Myc/DDK tags) with human MAGE-B2 or CHO cells transfected with mCherry Vector (open reading frame (ORF); minus Myc/DDK tags) with human MAGEB2, and thirteen human cancer cell lines with known endogenous RNA expression level of MAGEB2 (U266B1, T98G, KMM-1, U20S, CFPAC-1, SCaBER, UACC-257, CFPAC-1, VMRC-LCD, NCI-H1703, UM-UC-3, NCI-H1395, NCIH82).
(§2) FFPE samples were sectioned at 4 μm and mounted on positive charged glass slides. After mounting, paraffin sections were air-dried at room temperature. FFPE TMA samples were received as freshly sectioned and mounted on glass slides. The fully automated IHC assay was performed on a Discovery Ultra Stainer (Ventana Medical Systems, Tucson, AZ) using Ventana Anti-Rabbit HQ (cat #760-4815), Ventana Anti-HQ HRP (cat #760-4820), and Ventana Antibody Diluent with Casein (cat #760-219) (Ventana Medical Systems, Tucson, AZ). The slides were baked on the Discovery Ultra Stainer at 60° C. for 8 minutes, de-paraffinized with Ventana Discovery wash (cat #950-510) for 3 cycles (8 minutes each) at 69° C., and underwent cell conditioning (target retrieval) at 95° C. for 16 minutes (for cell arrays) or 32 minutes (tissues or TMAs) in CC1 buffer (cat #950-500). Following this, slides were incubated with Background Sniper (cat #BS966M, Biocare Medical, Pacheco, CA) in a Ventana Option Prep kit (cat #771-751) for 28 minutes, incubated with CM inhibitor (a part of the Ventana DAB kit cat #760-159) for 12 minutes, and incubated for 1 h at RT with MAGE-B2 antibody diluted with Ventana diluent with Casein in a Ventana Prep kit (cat #770-001) (working concentration at 0.1 μg/ml for cell pellet, or 1-5 ug/ml for tissues) or with a matched concentration of isotype control Rabbit IgG1 antibody.

human MAGEA5 = molecular target: T2, human MAGEA5 (human, UniProt P43359 1-124); experiment: IHC, FFPE CHO cells transfected with human MAGEA5
T2 construct: whole, on cells; FFPE cell pellets
T2 sequence (looked up): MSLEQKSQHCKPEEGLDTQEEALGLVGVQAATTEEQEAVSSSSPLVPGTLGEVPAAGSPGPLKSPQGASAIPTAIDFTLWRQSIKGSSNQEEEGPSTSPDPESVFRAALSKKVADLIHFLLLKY
From the text: as §1, §2

human MAGEB1 = molecular target: T3, human MAGEB1 (human, UniProt P43366 1-347); experiment: IHC, FFPE CHO cells transfected with human MAGEB1
T3 construct: whole, on cells; Transfected into CHO cells with Myc/DDK tags
T3 sequence (looked up): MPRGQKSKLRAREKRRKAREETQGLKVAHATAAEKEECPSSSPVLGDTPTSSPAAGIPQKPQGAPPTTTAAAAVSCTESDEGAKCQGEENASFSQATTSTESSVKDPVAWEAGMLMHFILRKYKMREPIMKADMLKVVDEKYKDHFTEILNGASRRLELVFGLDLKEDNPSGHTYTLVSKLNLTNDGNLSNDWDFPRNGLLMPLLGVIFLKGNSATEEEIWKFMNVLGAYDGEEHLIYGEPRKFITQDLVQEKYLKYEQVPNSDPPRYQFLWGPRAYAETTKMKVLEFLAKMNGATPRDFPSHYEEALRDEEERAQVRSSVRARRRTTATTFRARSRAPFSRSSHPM
From the text: as §1, §2

Measured: binding result

B1: 1I14 (antibody, V domains shown)
VH: QSVEESGGRLVTPGTPLTLTCTISGFSLSSYAMSWVRQAPGKGLEWIGSIGGGGSAVYASWAKGRFTISKTSTTVDLRITSPTTEDTAMYFCGRGFYSIDLWGPGTLVTVSS
VL: DVVMTQTPASVEATVGGTVTIKCQSSQSVYDNNALAWYQQNAGQRPRLLIYGASTLASGVPSRFSASGSGTEFTLTISDLECADAATYYCQCTYYVSSYQNDFGGGTEVVVKG
notes: also called MAGE-B2 (1i14)
no binding (tested: 0.1 µg/ml): all assays above

B2: 1C3 (antibody, V domains shown)
VH: QSLEESGGGLVQPEGSLTLTCTAFGVTLTNYYICWVRQAPGKGLEWVGCIDNANGRTYYASWAKGRFTISKTSSTTGTLQMTSLTAADTATYFCARSLATPLWGPGTLVTVSS
VL: DIVMTQTPSSVEAAVGGTVTIKCQASQNISSYLAWYQQKPGQPPKLLIYRASTLASGVPSRFKGSGSGTQFTLTISDLECADAATYYCQSYDDSRSSNFFYAFGGGTEVVVKG
notes: also called MAGE-B2 (IC3); anti-MAGEB2 antibody 1C3
no binding (tested: 0.1 µg/ml): all assays above

B3: 4G17 (antibody, IgG1, V domains shown)
VH: QSLEESGGGLVQPEGSLTLTCTASGVTLSNYYICWVRQAPGKGLEWIGCIDNVNGRTYYASWAKGRFTISKTSSTTGTLQMTSLTAADTATYFCARSLATPLWGPGTLVTVSS
VL: DIVMTQTPASVEAAVGGTVTIKCQASQNIDSYLAWYQQKPGQPPKLLIYRASTLASGVPSRFKGSGSGTEFTLTISDLECADAATYYCQSYDDSRSSSFFYGFGGGTEVVVK
notes: Rabbit monoclonal IgG1; Tested as supernatant and as small batch purified antibody; also called MAGE-B2 (4G17); anti-MAGEB2 antibody 4G17
no binding (tested: 0.1 µg/ml): all assays above

B4: 1J15 (antibody, IgG1, V domains shown)
VH: QSLEESGGGLVQPEGSLTLTCTAFGFTLNNYYICWVRQAPGKGLEWIACIDNANGRTYYASWAKGRFTISKTSSTTVTLQMTSLTAADTATYFCARSLSTPLWGPGTLVTVSS
VL: DIVMTQTPASVEAAVGGTVTIKCQASQSISSYLSWYQQKPGQPPKLLIYRASTLASGVPSRFRGSGSGTQFTLTISDLECADAATYYCQSYDDSSDNNFFYGFGGGTEVVVR
notes: Rabbit monoclonal IgG1; Tested as supernatant and as small batch purified antibody; also called MAGE-B2 (IJ15); anti-MAGEB2 antibody 1J15
no binding (tested: 0.1 µg/ml): all assays above
